From PMC12624060, “Structures of human organellar SPFH protein complexes” (Nature Communications, 2025) come the findings set out here.

Series [1] concerns the molecule itself. In words: cryo-EM structure; Erlin1/2 complex after tandem affinity purification and SEC, in 50 mM HEPES/KOH pH 7.4, 150 mM NaCl, 0.02% DDM, 0.004% CHS; single-particle map at 3.0 Å, no symmetry applied in the last refinement.
A further series concerns the target T1, untagged PHB2 (human, UniProt Q99623 1-299).
T1 construct: PHB2 (prohibitin 2), human; 11 copies in the 22-subunit PHB1/2 complex; source: complex purified on StrepTactin; copies: 11
The series can be described thus: cryo-EM structure; PHB1/2 complex after one-step StrepTactin purification, in 20 mM HEPES/KOH pH 7.4, 50 mM K-phosphate, 150 mM KCl, 5 mM magnesium acetate, 5 mM ATP, DDM/CHS; closed (2.4 Å) and open (3.1 Å) conformations, C11 symmetry. Particulars: both partners purified.

T1 sequence (Q99623 whole entry): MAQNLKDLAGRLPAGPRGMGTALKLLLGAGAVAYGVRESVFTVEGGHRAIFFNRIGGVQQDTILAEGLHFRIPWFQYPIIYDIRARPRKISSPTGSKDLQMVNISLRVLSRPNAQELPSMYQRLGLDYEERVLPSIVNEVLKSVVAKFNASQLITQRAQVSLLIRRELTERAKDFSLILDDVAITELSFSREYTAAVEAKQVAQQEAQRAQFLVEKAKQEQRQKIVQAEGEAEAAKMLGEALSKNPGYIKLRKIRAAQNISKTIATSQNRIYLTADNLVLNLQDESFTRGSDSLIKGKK

B1: C-terminally Flag-tagged Erlin2 (natural protein, human)
chain: MAQLGAVVAVASSFFCASLFSAVHKIEEGHIGVYYRGGALLTSTSGPGFHLMLPFITSYKSVQTTLQTDEVKNVPCGTSGGVMIYFDRIEVVNFLVPNAVYDIVKNYTADYDKALIFNKIHHELNQFCSVHTLQEVYIELFDQIDENLKLALQQDLTSMAPGLVIQAVRVTKPNIPEAIRRNYELMESEKTKLLIAAQKQKVVEKEAETERKKALIEAEKVAQVAEITYGQKVMEKETEKKISEIEDAAFLAREKAKADAECYTAMKIAEANKLKLTPEYLQLMKYKAIASNSKIYFGKDIPNMFMDSAGSVSKQFEGLADKLSFGLEDEPLETATKEN
modifications: N-linked glycan on N106
notes: Erlin2, human; cDNA in pcDNA5; 13 copies in the 26-subunit Erlin1/2 complex as modelled; also called Erlin2-Flag; source: Expi293F, co-transfected with Strep-Erlin1; complex purified (StrepTactin, anti-FLAG M2, Superose 6) in DDM/CHS; not shown: Flag, C-terminal, kept; copies: 13
For the molecule B1, the binding result in series [1] is on record as “binds”.

B2: N-terminally Strep-tagged Erlin1 (natural protein, human)
chain: MTQARVLVAAVVGLVAVLLYASIHKIEEGHLAVYYRGGALLTSPSGPGYHIMLPFITTFRSVQTTLQTDEVKNVPCGTSGGVMIYIDRIEVVNMLAPYAVFDIVRNYTADYDKTLIFNKIHHELNQFCSAHTLQEVYIELFDQIDENLKQALQKDLNLMAPGLTIQAVRVTKPKIPEAIRRNFELMEAEKTKLLIAAQKQKVVEKEAETERKKAVIEAEKIAQVAKIRFQQKVMEKETEKRISEIEDAAFLAREKAKADAEYYAAHKYATSNKHKLTPEYLELKKYQAIASNSKIYFGSNIPNMFVDSSCALKYSDIRTGRESSLPSKEALEPSGENVIQNKESTG
modifications: N-linked glycan on N108
notes: Erlin1, human; cDNA in pcDNA5; 13 copies in the 26-subunit Erlin1/2 complex as modelled; source: Expi293F, co-transfected with Erlin2-Flag; complex purified (StrepTactin, anti-FLAG M2, Superose 6) in DDM/CHS; not shown: Strep, N-terminal, kept; copies: 13
For the molecule B2, in series [1], the binding result is listed as “binds”.

B3: N-terminally Strep-tagged PHB1 (stable Expi293F line) (natural protein, human)
chain: MAAKVFESIGKFGLALAVAGGVVNSALYNVDAGHRAVIFDRFRGVQDIVVGEGTHFLIPWVQKPIIFDCRSRPRNVPVITGSKDLQNVNITLRILFRPVASQLPRIFTSIGEDYDERVLPSITTEILKSVVARFDAGELITQRELVSRQVSDDLTERAATFGLILDDVSLTHLTFGKEFTEAVEAKQVAQQEAERARFVVEKAEQQKKAAIISAEGDSKAAELIANSLATAGDGLIELRKLEAAEDIAYQLSRSRNITYLPAGQSVLLQLPQ
notes: PHB1 (prohibitin 1), human; cDNA in pHAGE; 11 copies in the 22-subunit PHB1/2 complex; also called prohibitin; source: solubilised membranes (DDM/CHS) and complex purified on StrepTactin; not shown: Strep, N-terminal, kept; copies: 11
Consider B3, for which the “stoichiometry N” value in the series with untagged PHB2 was 11 heterodimers in the complex.
